Results as given in patent US20230257470A1 (published 2023).
Substitutions are numbered along the chain they refer to. Names and notes keep the numbering of the source.

T1: human FcγRIIa(R) (allotype R131) (human, UniProt P12318 36-217)
T1 construct: Soluble analyte in SPR; also called hFcgRIIa(R); FcgRIIaR
T1 chain: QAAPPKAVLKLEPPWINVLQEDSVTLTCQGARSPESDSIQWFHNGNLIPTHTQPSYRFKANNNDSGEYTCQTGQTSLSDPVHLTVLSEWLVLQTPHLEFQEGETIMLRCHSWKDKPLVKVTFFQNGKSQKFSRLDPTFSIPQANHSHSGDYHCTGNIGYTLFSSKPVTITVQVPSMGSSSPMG

T2: human FcγRIIb (human, UniProt P31994 43-217, limits assumed)
T2 construct: Soluble analyte in SPR; also called hFcgRIIb; FcgRIIb
T2 sequence: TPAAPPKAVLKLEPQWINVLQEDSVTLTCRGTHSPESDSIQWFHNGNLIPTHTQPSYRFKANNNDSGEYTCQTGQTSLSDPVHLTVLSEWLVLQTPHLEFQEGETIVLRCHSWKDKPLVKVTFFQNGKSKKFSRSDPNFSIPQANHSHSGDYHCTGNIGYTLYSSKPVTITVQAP

T3: human FcγRIIa(H) (allotype H131) (human, UniProt P12318 36-217)
T3 construct: Soluble analyte in SPR; also called hFcgRIIa(H); FcgRIIaH
T3 sequence: T1 chain with R133H

T4: human FcγRIIb (human, UniProt P31994 43-217)
T4 construct: also called FcγIIB
T4 sequence: T2 sequence

T5: human FcγRIIa type R (human, UniProt P12318 36-217)
T5 construct: also called FcγRIIaR; Fc γ RIIaR
T5 chain: T1 chain

B1: antibody containing VH3-IgG4-F890 for the heavy chain and L(WT)-CK for the light chain (antibody)
heavy: QVQLQESGPGLVKPSETLSLTCAVSGHSISHDHAWSWVRQPPGEGLEWIGFISYSGITNYNPSLQGRVTISRDNSKNTLYLQMNSLRAEDTAVYYCARSLARTTAMDYWGEGTLVTVSSASTKGPSVFPLAPCSRSTSESTAALGCLVKDYFPEPVTVSWNSGALTSGVHTFPAVLQSSGLYSLSSVVTVPSSSLGTKTYTCNVDHKPSNTKVDKRVESKYGPPCPPCPAPEFLGGPSVFLFPPKPKDTLYISRTPEVTCVVVDVSQEDPEVQFNWYVDGVEVHNAKTKPREEQFNSTYRVVSVLTVLHQDWLNGKEYKCKVSNKGLPSSIEKTISKAKGQPREPQVYTLPPSQEEMTKNQVSLTCLVKGFYPSDIAVEWESNGQPENNYKTTPPVLDSDGSFFLYSRLTVDKSRWQEGNVFSCSVMHEALHYHVTQKSLSLSL
light: not shown
notes: VH3-IgG4 with M252Y/N434Y/Y436V (EU numbering)
B2: antibody containing VH3-IgG4-F939 for the heavy chain and L(WT)-CK for the light chain (antibody)
heavy: B1 heavy with L234R, S238K
light: not shown
notes: VH3-IgG4 with L235R/S239K/M252Y/N434Y/Y436V (EU numbering)
B3: antibody containing VH3-IgG2-F890 for the heavy chain and L(WT)-CK for the light chain (antibody)
heavy: QVQLQESGPGLVKPSETLSLTCAVSGHSISHDHAWSWVRQPPGEGLEWIGFISYSGITNYNPSLQGRVTISRDNSKNTLYLQMNSLRAEDTAVYYCARSLARTTAMDYWGEGTLVTVSSASTKGPSVFPLAPCSRSTSESTAALGCLVKDYFPEPVTVSWNSGALTSGVHTFPAVLQSSGLYSLSSVVTVPSSNFGTQTYTCNVDHKPSNTKVDKTVERKCCVECPPCPAPPVAGPSVFLFPPKPKDTLYISRTPEVTCVVVDVSHEDPEVQFNWYVDGVEVHNAKTKPREEQFNSTFRVVSVLTVVHQDWLNGKEYKCKVSNKGLPAPIEKTISKTKGQPREPQVYTLPPSREEMTKNQVSLTCLVKGFYPSDIAVEWESNGQPENNYKTTPPMLDSDGSFFLYSKLTVDKSRWQQGNVFSCSVMHEALHYHVTQKSLSLSP
light: not shown
notes: VH3-IgG2 with M252Y/N434Y/Y436V (EU numbering)
B4: antibody containing VH3-IgG2 for the heavy chain and L(WT)-CK for the light chain (antibody)
heavy: B3 heavy with Y250M, Y432N, V434Y
light: not shown
B5: antibody containing VH3-IgG2-F939 for the heavy chain and L(WT)-CK for the light chain (antibody)
heavy: B3 heavy with A234R, S237K
light: not shown
notes: VH3-IgG2 with A235R/S239K/M252Y/N434Y/Y436V (EU numbering)
B6: IL6R-F652/IL6R-L (antibody, human IgG1)
heavy: QVQLQESGPGLVKPSETLSLTCAVSGHSISHDHAWSWVRQPPGEGLEWIGFISYSGITNYNPSLQGRVTISRDNSKNTLYLQMNSLRAEDTAVYYCARSLARTTAMDYWGEGTLVTVSSASTKGPSVFPLAPSSKSTSGGTAALGCLVKDYFPEPVTVSWNSGALTSGVHTFPAVLQSSGLYSLSSVVTVPSSSLGTQTYICNVNHKPSNTKVDKKVEPKSCDKTHTCPPCPAPELLGGDSVFLFPPKPKDTLYISRTPEVTCVVVDVSHEDPEVKFNWYVDGVEVHNAKTKPREEQYNSTYRVVSVLTVLHQDWLNGKEYKCKVSNKALPAPIEKTISKAKGQPREPQVYTLPPSRDELTKNQVSLTCLVKGFYPSDIAVEWESNGQPENNYKTTPPVLDSDGSFFLYSKLTVDKSRWQQGNVFSCSVMHEALHYHYTQKSLSLSP
light: DIQMTQSPSSLSASVGDRVTITCRASQDISSYLNWYQQKPGKAPKLLIYYTSRLHSGVPSRFSGSGSGTDFTFTISSLQPEDIATYYCQQGNTLPYTFGQGTKVEIK
notes: P238D introduced into IL6R-F11 (M252Y/N434Y in IL6R-G1d); also called P238D
B7: IL6R-PD043/IL6R-L (antibody, human IgG1)
heavy: B6 heavy with L236Y
light: B6 light
notes: Alterations introduced into IL6R-F11; also called P238D/L234Y
B8: IL6R-PD079/IL6R-L (antibody, human IgG1)
heavy: B6 heavy with G239A
light: B6 light
notes: Alterations introduced into IL6R-F11; also called P238D/G237A
B9: IL6R-PD086/IL6R-L (antibody, human IgG1)
heavy: B6 heavy with G239L
light: B6 light
notes: Alterations introduced into IL6R-F11; also called P238D/G237L
B10: IL6R-PD080/IL6R-L (antibody)
heavy: B6 heavy with G239D
light: B6 light
notes: Alterations introduced into IL6R-F11; also called P238D/G237D
B11: IL6R-PD042/IL6R-L (antibody, human IgG1)
heavy: B6 heavy with L236W
light: B6 light
notes: Alterations introduced into IL6R-F11; also called P238D/L234W
B12: IL6R-PD094/IL6R-L (antibody, human IgG1)
heavy: B6 heavy with G239W
light: B6 light
notes: Alterations introduced into IL6R-F11; also called P238D/G237W
B13: IL6R-PD095/IL6R-L (antibody, human IgG1)
heavy: B6 heavy with G239Y
light: B6 light
notes: Alterations introduced into IL6R-F11; also called P238D/G237Y
B14: IL6R-PD087/IL6R-L (antibody, human IgG1)
heavy: B6 heavy with G239M
light: B6 light
notes: Alterations introduced into IL6R-F11; also called P238D/G237M
B15: IL6R-PD097/IL6R-L (antibody, human IgG1)
heavy: B6 heavy with S241D
light: B6 light
notes: Alterations introduced into IL6R-F11; also called P238D/S239D
B16: IL6R-PD081/IL6R-L (antibody, human IgG1)
heavy: B6 heavy with G239E
light: B6 light
notes: Alterations introduced into IL6R-F11; also called P238D/G237E
B17: IL6R-PD082/IL6R-L (antibody, human IgG1)
heavy: B6 heavy with G239F
light: B6 light
notes: Alterations introduced into IL6R-F11; also called P238D/G237F

These binders were tested against T6, human FcγRIa (human, UniProt P12314 16-292, limits assumed) (assay: SPR (Biacore), antibody captured by Protein L, FcγR as analyte, pH 7.4, 25 C;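 note: Buffer-blank-subtracted FcγR response, normalized to the captured antibody level and scaled to 1500 RU of captured antibody, CM4 chip, ACES-NaCl running buffer with polysorbate 20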).
T6 construct: Soluble analyte in SPR; also called hFcgRIa; FcgRIa
T6 sequence (P12314 16-292 limits assumed): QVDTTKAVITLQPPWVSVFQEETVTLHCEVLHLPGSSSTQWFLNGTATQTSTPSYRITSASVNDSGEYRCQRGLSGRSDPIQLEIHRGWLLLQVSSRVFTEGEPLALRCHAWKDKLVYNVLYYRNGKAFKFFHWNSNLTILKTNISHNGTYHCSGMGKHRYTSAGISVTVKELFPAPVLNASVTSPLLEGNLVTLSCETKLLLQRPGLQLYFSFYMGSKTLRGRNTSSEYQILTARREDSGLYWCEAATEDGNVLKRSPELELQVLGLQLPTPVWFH
Procedure: (§1) Binding activity between the antibodies and human FcγRIa, FcγRIIa(H), FcγRIIa(R), FcγRIIb and FcγRIIIa(F) (hereinafter referred to as human FcγRs) was evaluated using the BIACORE™ T100 or T200 surface plasmon resonance system (GE Healthcare). The antibodies being tested were captured by Protein L (ACTIGEN® protein (Alltech)) that was immobilized in suitable amounts on the CM4 Sensor Chip (GE Healthcare) by amine coupling. Next, the diluted human FcγRs and a running buffer used as a blank were injected to allow interaction with the antibodies captured on the sensor chip. A buffer consisting of 20 mmol/L N-(2-acetamido)-2-aminoethanesulfonic acid (ACES), 150 mmol/L NaCl and 0.05% (w/v) polysorbate 20 (Tween 20®) (pH 7.4) was used for the running buffer, and this buffer was also used to dilute the human FcγRs. 10 mmol/L glycine-HCl (pH 1.5) was used to regenerate the sensor chip. All measurements were carried out at 25° C.
(§2) Binding activity to human FcγRs can be represented by the relative binding activity to human FcγRs. Antibody was captured by Protein L, and the amount of change in a sensorgram before and after the antibody was captured was defined as X1. Next, human FcγRs were allowed to interact with the antibody, and the value obtained by subtracting binding activity of human FcγRs represented as the amount of change in a sensorgram before and after allowing the running buffer to interact with antibody captured by Protein L (ΔA2) from the value obtained by multiplying by 1500 the value obtained by dividing the binding activity of human FcγRs represented as the amount of change in a sensorgram before and after that interaction (ΔA1) by the captured amount (X) of each antibody, was divided by the captured amount of each antibody (X) followed by multiplying by 1500 to obtain the binding activity of the human FcγRs (Y) (Equation 2).

BINDING AMOUNT (RU) | Binder
367 | B1
1.2 | B2
19.7 | B3
38.6 | B4
1.3 | B5

Target: T1, human FcγRIIa(R) (allotype R131)
Test: as above
Procedure: as §1, §2

BINDING AMOUNT (RU) | Binder
92.8 | B1
-0.2 | B2
120 | B3
188 | B4
1 | B5

What follows are binders tested against T7, human FcγRIIIa(F) (allotype F158) (human, UniProt P08637 17-208, limits assumed) in the same assay as above.
T7 construct: also called hFcgRIIIa(F); FcgRIIIaF
T7 sequence (P08637 other isoform, or with tags, fused parts or gaps limits assumed): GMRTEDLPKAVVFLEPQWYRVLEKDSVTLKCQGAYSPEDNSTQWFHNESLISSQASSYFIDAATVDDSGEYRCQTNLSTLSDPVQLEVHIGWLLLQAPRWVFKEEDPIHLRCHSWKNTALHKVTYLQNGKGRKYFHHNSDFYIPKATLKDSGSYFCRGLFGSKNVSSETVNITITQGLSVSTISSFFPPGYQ
Procedure: as §1, §2

BINDING AMOUNT (RU) | Binder
3.4 | B1
-1.7 | B2
9.3 | B3
16.3 | B4
0.6 | B5

The binders below were run against T2, human FcγRIIb in the same assay as above.
Procedure: as §1, §2

BINDING AMOUNT (RU) | Binder
71.8 | B1
0.4 | B2
31.9 | B3
55.5 | B4
0.4 | B5

What follows are binders tested against T8, human FcγRIIIa(V) (allotype V158) (human, UniProt P08637 17-208, limits assumed) in the same assay as above.
T8 construct: also called hFcgRIIIa(V)
T8 sequence (P08637 other isoform, or with tags, fused parts or gaps limits assumed): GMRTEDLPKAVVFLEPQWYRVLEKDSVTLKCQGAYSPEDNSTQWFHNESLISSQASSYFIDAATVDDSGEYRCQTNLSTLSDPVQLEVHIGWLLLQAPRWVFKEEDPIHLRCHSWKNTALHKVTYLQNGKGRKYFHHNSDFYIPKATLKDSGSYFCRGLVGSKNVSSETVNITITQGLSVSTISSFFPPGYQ
Procedure: as §1, §2

BINDING AMOUNT (RU) | Binder
15.5 | B1
-0.5 | B2
28.1 | B3
50.1 | B4
1.1 | B5

The binders below were run against T3, human FcγRIIa(H) (allotype H131) in the same assay as above.
Procedure: as §1, §2

BINDING AMOUNT (RU) | Binder
37.5 | B1
-0.7 | B2
204 | B3
266 | B4
1 | B5

What follows are binders tested against T4, human FcγRIIb (assay: SPR (Biacore), captured antibody, FcγR as analyte; binding amount divided by that of IL6R-F652/IL6R-L, times 100).

RELATIVE BINDING ACTIVITY FOR FcγRIIb | Binder
100 relative (IL6R-F652/IL6R-L = 100) | B6
112 relative (IL6R-F652/IL6R-L = 100) | B7
101 relative (IL6R-F652/IL6R-L = 100) | B8
112 relative (IL6R-F652/IL6R-L = 100) | B9
127 relative (IL6R-F652/IL6R-L = 100) | B10
106 relative (IL6R-F652/IL6R-L = 100) | B11
122 relative (IL6R-F652/IL6R-L = 100) | B12
124 relative (IL6R-F652/IL6R-L = 100) | B13
109 relative (IL6R-F652/IL6R-L = 100) | B14
139 relative (IL6R-F652/IL6R-L = 100) | B15
101 relative (IL6R-F652/IL6R-L = 100) | B16
108 relative (IL6R-F652/IL6R-L = 100) | B17

Target: T5, human FcγRIIa type R
Test: as above

RELATIVE BINDING ACTIVITY FOR FcγRIIaR | Binder
100 relative (IL6R-F652/IL6R-L = 100) | B6
175 relative (IL6R-F652/IL6R-L = 100) | B7
138 relative (IL6R-F652/IL6R-L = 100) | B8
268 relative (IL6R-F652/IL6R-L = 100) | B9
222 relative (IL6R-F652/IL6R-L = 100) | B10
240 relative (IL6R-F652/IL6R-L = 100) | B11
593 relative (IL6R-F652/IL6R-L = 100) | B12
543 relative (IL6R-F652/IL6R-L = 100) | B13
196 relative (IL6R-F652/IL6R-L = 100) | B14
844 relative (IL6R-F652/IL6R-L = 100) | B15
117 relative (IL6R-F652/IL6R-L = 100) | B16
380 relative (IL6R-F652/IL6R-L = 100) | B17
